Test results published in paper PMC9247503, “Oligomerization and Spatial Distribution of Kvβ1.1 and Kvβ2.1 Regulatory Subunits” (Frontiers in Physiology, 2022).
Values joined by “and” are separate entries in the source; they are usually repeats but may differ in a detail not shown here. Equal entries are not always repeated.

T1: Kvβ1.1CFP (mouse (from the prefix m in mKvβ1.1), UniProt P63143 1-401)
T1 construct: voltage-gated potassium channel regulatory subunit Kvβ1.1 (splice form 1.1 of Kvβ1), mouse by the prefix m in mKvβ1.1; also called mKvβ1.1 in pECFP-N1; Kvb1.1CFP; source: HEK-293, transfected; in lysate (co-IP) and in cells or membrane sheets (FRET)
T1 sequence (looked up): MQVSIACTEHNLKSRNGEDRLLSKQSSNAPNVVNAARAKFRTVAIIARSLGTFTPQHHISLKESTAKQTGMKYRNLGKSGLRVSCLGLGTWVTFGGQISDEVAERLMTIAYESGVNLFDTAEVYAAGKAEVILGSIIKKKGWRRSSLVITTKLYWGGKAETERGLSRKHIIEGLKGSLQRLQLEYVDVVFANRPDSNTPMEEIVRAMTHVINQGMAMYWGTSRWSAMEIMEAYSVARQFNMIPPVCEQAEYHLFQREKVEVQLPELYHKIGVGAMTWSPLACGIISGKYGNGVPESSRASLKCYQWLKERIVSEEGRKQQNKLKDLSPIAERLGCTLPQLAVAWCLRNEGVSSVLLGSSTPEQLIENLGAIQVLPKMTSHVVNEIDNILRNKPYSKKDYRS

T2: Kvβ2.1YFP (mouse (from the prefix m in mKvβ2.1)), P62482
T2 chain: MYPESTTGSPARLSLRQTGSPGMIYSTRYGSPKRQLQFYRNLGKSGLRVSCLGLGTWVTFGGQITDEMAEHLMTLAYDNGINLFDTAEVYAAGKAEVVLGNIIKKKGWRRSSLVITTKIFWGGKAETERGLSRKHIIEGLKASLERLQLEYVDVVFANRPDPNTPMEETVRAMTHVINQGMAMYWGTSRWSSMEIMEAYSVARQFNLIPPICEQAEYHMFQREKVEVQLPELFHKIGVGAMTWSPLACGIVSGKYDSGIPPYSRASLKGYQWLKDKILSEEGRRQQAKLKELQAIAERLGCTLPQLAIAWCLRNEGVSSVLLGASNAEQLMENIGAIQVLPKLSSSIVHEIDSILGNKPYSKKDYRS

T3: Kvβ2.1CFP (mouse (from the prefix m in mKvβ2.1)), P62482
T3 chain: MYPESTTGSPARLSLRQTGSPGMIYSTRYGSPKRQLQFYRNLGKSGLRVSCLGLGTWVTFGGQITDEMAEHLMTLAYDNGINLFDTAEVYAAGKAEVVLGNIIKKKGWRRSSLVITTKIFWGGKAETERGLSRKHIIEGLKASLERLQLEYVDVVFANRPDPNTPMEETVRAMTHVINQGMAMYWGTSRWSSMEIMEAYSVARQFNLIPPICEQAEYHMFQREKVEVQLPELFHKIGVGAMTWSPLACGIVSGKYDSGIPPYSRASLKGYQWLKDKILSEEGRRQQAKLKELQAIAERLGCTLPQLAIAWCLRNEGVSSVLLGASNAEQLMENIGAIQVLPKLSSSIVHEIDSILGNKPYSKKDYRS

B1: Kvβ1.1YFP (natural protein, mouse (from the prefix m in mKvβ1.1), UniProt P63143 1-401, looked up)
chain: MQVSIACTEHNLKSRNGEDRLLSKQSSNAPNVVNAARAKFRTVAIIARSLGTFTPQHHISLKESTAKQTGMKYRNLGKSGLRVSCLGLGTWVTFGGQISDEVAERLMTIAYESGVNLFDTAEVYAAGKAEVILGSIIKKKGWRRSSLVITTKLYWGGKAETERGLSRKHIIEGLKGSLQRLQLEYVDVVFANRPDSNTPMEEIVRAMTHVINQGMAMYWGTSRWSAMEIMEAYSVARQFNMIPPVCEQAEYHLFQREKVEVQLPELYHKIGVGAMTWSPLACGIISGKYGNGVPESSRASLKCYQWLKERIVSEEGRKQQNKLKDLSPIAERLGCTLPQLAVAWCLRNEGVSSVLLGSSTPEQLIENLGAIQVLPKMTSHVVNEIDNILRNKPYSKKDYRS
notes: voltage-gated potassium channel regulatory subunit Kvβ1.1 (splice form 1.1 of Kvβ1), mouse by the prefix m in mKvβ1.1; also called mKvβ1.1 in pEYFP-N1; source: HEK-293, transfected; in cells or membrane sheets (FRET) and in lysate (semidenaturing gel)

Assays:
[1] = biological target: the molecule itself; test: semidenaturing SDS-PAGE with immunoblot; total lysates of transfected HEK-293 cells, not boiled, 8% SDS-PAGE, immunoblot with anti-GFP antibody
Kvβ1.1CFP = biological target: T1, Kvβ1.1CFP; test: FRET or BRET; linear unmixing FRET (lux-FRET) on suspensions of living HEK-293 cells in PBS at 37°C, different donor molar ratios; fit of apparent EfD and EfA against xD gives E and n (units per complex); settings: partners not purified
[2] = biological target: T2, Kvβ2.1YFP (mouse (from the prefix m in …)); test: semidenaturing SDS-PAGE with immunoblot; total lysates of transfected HEK-293 cells, not boiled, 8% SDS-PAGE, immunoblot with anti-GFP antibody; settings: remark: other sources report otherwise
[3] = biological target: T3, Kvβ2.1CFP (mouse (from the prefix m in …)); test: FRET or BRET; linear unmixing FRET (lux-FRET) on suspensions of living HEK-293 cells in PBS at 37°C, different donor molar ratios; fit of apparent EfD and EfA against xD gives E and n (units per complex); settings: remark: other sources report otherwise
Kvβ1.1YFP = biological target: B1; test: as above; settings: partners not purified

Row | Binder | stoichiometry N [1] | FRET efficiency (E) (Kvβ1.1CFP) [%] | stoichiometry N (Kvβ1.1CFP) | also measured
1 | B1 | 2 and 4 | 30.2 | 1.93 | –
2 | Kvβ2.1YFP, P62482 1-367 (natural protein) MYPESTTGSPARLSLRQTGSPGMIYSTRYGSPKRQLQFYRNLGKSGLRVSCLGLGTWVTFGGQITDEMAEHLMTLAYDNGINLFDTAEVYAAGKAEVVLGNIIKKKGWRRSSLVITTKIFWGGKAETERGLSRKHIIEGLKASLERLQLEYVDVVFANRPDPNTPMEETVRAMTHVINQGMAMYWGTSRWSSMEIMEAYSVARQFNLIPPICEQAEYHMFQREKVEVQLPELFHKIGVGAMTWSPLACGIVSGKYDSGIPPYSRASLKGYQWLKDKILSEEGRRQQAKLKELQAIAERLGCTLPQLAIAWCLRNEGVSSVLLGASNAEQLMENIGAIQVLPKLSSSIVHEIDSILGNKPYSKKDYRS | – | – | – | stoichiometry N [2]: 2 and 4; FRET efficiency (E) [3]: 22.3%; stoichiometry N [3]: 2.09
3 | Kvβ2.1CFP (natural protein, mouse (from the prefix m in mKvβ2.1), UniProt P62482 1-367, looked up, voltage-gated potassium channel regulatory subunit Kvβ2.1, mouse by the prefix m in mKvβ2.1; also called mKvβ2.1 in pECFP-N1; source: HEK-293, transfected; in lysate (co-IP) and in cells or membrane sheets (FRET)) MYPESTTGSPARLSLRQTGSPGMIYSTRYGSPKRQLQFYRNLGKSGLRVSCLGLGTWVTFGGQITDEMAEHLMTLAYDNGINLFDTAEVYAAGKAEVVLGNIIKKKGWRRSSLVITTKIFWGGKAETERGLSRKHIIEGLKASLERLQLEYVDVVFANRPDPNTPMEETVRAMTHVINQGMAMYWGTSRWSSMEIMEAYSVARQFNLIPPICEQAEYHMFQREKVEVQLPELFHKIGVGAMTWSPLACGIVSGKYDSGIPPYSRASLKGYQWLKDKILSEEGRRQQAKLKELQAIAERLGCTLPQLAIAWCLRNEGVSSVLLGASNAEQLMENIGAIQVLPKLSSSIVHEIDSILGNKPYSKKDYRS | – | – | – | FRET efficiency (E) (Kvβ1.1YFP): 30.4%; stoichiometry N (Kvβ1.1YFP): 1.99
4 | Kvβ2.1YFP (natural protein, mouse (from the prefix m in mKvβ2.1), UniProt P62482 1-367, looked up, voltage-gated potassium channel regulatory subunit Kvβ2.1, mouse by the prefix m in mKvβ2.1; also called mKvβ2.1 in pEYFP-N1; Kvb2.1 YFP; source: HEK-293, transfected; in cells or membrane sheets (FRET) and in lysate (semidenaturing gel)) MYPESTTGSPARLSLRQTGSPGMIYSTRYGSPKRQLQFYRNLGKSGLRVSCLGLGTWVTFGGQITDEMAEHLMTLAYDNGINLFDTAEVYAAGKAEVVLGNIIKKKGWRRSSLVITTKIFWGGKAETERGLSRKHIIEGLKASLERLQLEYVDVVFANRPDPNTPMEETVRAMTHVINQGMAMYWGTSRWSSMEIMEAYSVARQFNLIPPICEQAEYHMFQREKVEVQLPELFHKIGVGAMTWSPLACGIVSGKYDSGIPPYSRASLKGYQWLKDKILSEEGRRQQAKLKELQAIAERLGCTLPQLAIAWCLRNEGVSSVLLGASNAEQLMENIGAIQVLPKLSSSIVHEIDSILGNKPYSKKDYRS | – | 32.5 | 1.88 | –
5 | Kv1.3YFP (natural protein, UniProt P15384 1-525, looked up, voltage-gated potassium channel Kv1.3 (α subunit); Used as the tetrameric positive control; source: HEK-293, transfected; in cells (FRET) and in lysate (semidenaturing gel)) MTVVPGDHLLEPEAAGGGGGDPPQGGCVSGGGCDRYEPLPPALPAAGEQDCCGERVVINISGLRFETQLKTLCQFPETLLGDPKRRMRYFDPLRNEYFFDRNRPSFDAILYYYQSGGRIRRPVNVPIDIFSEEIRFYQLGEEAMEKFREDEGFLREEERPLPRRDFQRQVWLLFEYPESSGPARGIAIVSVLVILISIVIFCLETLPEFRDEKDYPASPSQDVFEAANNSTSGASSGASSFSDPFFVVETLCIIWFSFELLVRFFACPSKATFSRNIMNLIDIVAIIPYFITLGTELAERQGNGQQAMSLAILRVIRLVRVFRIFKLSRHSKGLQILGQTLKASMRELGLLIFFLFIGVILFSSAVYFAEADDPSSGFNSIPDAFWWAVVTMTTVGYGDMHPVTIGGKIVGSLCAIAGVLTIALPVPVIVSNFNYFYHRETEGEEQAQYMHVGSCQHLSSSAEELRKARSNSTLSKSEYMVIEEGGMNHSAFPQTPFKTGNSTATCTTNNNPNSCVNIKKIFTDV | 2 and 4 | – | – | –
